Measured values from patent US20020103121A1.

Target: GAL4 activation domain-E2F-1 hybrid protein (GAD.E2F-1) (human)
Assay: cell-based or functional assay

activity in the yeast two-hybrid assay relative to wild-type DP-1 (% reduction relative to wild-type DP-1): 50
response of the E2F binding site reporter in yeast: 50 % reduction
Substance: LexA-DP-1^172/173 hybrid protein (pLEX-DP-1/MT) (from UniProt Q08639 1-410)
